Key:
[1] = tested on: microbial sample isolated from soy protein; test: Growth of microbes isolated from soy protein in LB or RPMI; format: cell-based
Description: Psoriasin was applied to a microbial sample isolated from soy protein that was incubated in RPMI or LB medium, with no addition of external antibiotics. Liquid RPMI 1640 (5 ml) medium w/o Pen/strep antibiotics were inoculated with a colony that grew on an LB agarose plate from Example 8. The inoculated medium was incubated in a 37° C. shaker incubator overnight. Only the medium without antibiotics became turbid as a result of the endogenic bacterial growth. The isolated bacteria were used in dose-response experiments in RPMI 1640 and LB. Microbial growth was monitored in a 96-well plate by reading the absorbance at 600 nm every 10 minutes while adjusting the temperature to 37° C. In the rich LB medium, psoriasin was effective at a concentration of 50 μM (FIG. 9A). In RPMI, psoriasin was effective in concentrations below 1 μM (FIG. 9B).

[2] = tested on: microbial growth in bread/rolls; test: Microbial growth in baked bread/rolls stored at room temperature; format: cell-based; conditions: 0.3% psoriasin admixed with dough before baking, after 10 days at room temperature
Description: Bread or roll dough prepared with 150 ml PBS, 0.3% psoriasin, (1.5 g protein in 150 ml DDW) or 0.3% calcium propionate (1.5 g calcium propionate in 150 ml DDW) was baked in a bread maker according to the manufacturer protocol using the following recipe: 180 ml water (or 150 ml PBS+30 ml water), 1 teaspoon of salt, 2 spoons of sugar, 2 spoons of oil, 300 g of flour, and 1 teaspoon of yeast. Following baking, the bread was sliced, each slice/roll was weighed and kept in a separate small smasher bag until analysis.
Bread/rolls were stored at room temperature. Each day, a roll/slice of bread from each group was mixed with autoclaved 1×PBS at a weight ratio of 1:10 to the weighted piece of bread in the bag. The bread was then smashed in a smasher at normal speed for 120 seconds. 10 mL from the smashed bread was removed, vortexed, and diluted with autoclaved 1×PBS as necessary. Samples were plated on both PDA and LB plates and incubated at 30° C. and 37° C., respectively. All samples were performed in duplicate.

[3] = tested on: initial microbial load of plant-based meat substitute; test: Microbial load of plant-based meat substitute during storage; format: cell-based
Description: The ability of psoriasin to extend the shelf life of a plant-based meat substitute was examined under standard storage conditions. Three groups, each stored as an open package at […], were assessed over the course of 16 days. The groups included i) an untreated control, ii) a nisin-treated sample, and iii) a psoriasin-treated sample at 0.65%. A single source of the plant-based meat substitute was used and each group was reproduced in triplicate. The microbial load of the plant-based meat substitute samples was based on the initial microbial load without the addition of antibiotics and without the addition of mold, yeast or bacteria. Samples from each group were taken on days 1, 3, 5, 10, 11 and 16 and total CFU count was determined by plating on LB and PDA agar petri dishes.

[4] = tested on: microbial load of hummus spread; test: Shelf life of canned hummus spread at natural pH 6.5; format: cell-based; conditions: pH 6.5, stored at 6° C in an open container
Description: In a further related example, the ability of psoriasin to extend the shelf life of a canned hummus spread preparation was compared with that of nisin, a commonly used preservative at pH 6.5, the natural pH of the preparation. As described above, no antibiotics were added and there was no addition of mold, yeast or bacteria to the hummus spread. The hummus spread was split into 3 groups: i) untreated, ii) nisin-treated, and iii) psoriasin-treated. The hummus spread was stored at 6° C. in an open container. Total CFU count was determined by plating on LB and PDA agar petri dishes.

E. coli = test: Thermal stability of psoriasin, E. coli standard growth assay; format: cell-based
Description: In another study, psoriasin stock (36 mg/mL in 1×PBS) was exposed to temperatures of 70° C., 80° C., and 90° C. for periods of 15, 30, and 60 minutes. After thermal exposure, the activity of the protein was assessed against E. coli in a standard growth assay with 0.4%, 0.2% or 0.1% psoriasin.

Aspergillus flavus = test: Microbial Growth Inhibition Test, broth microdilution optical method; format: cell-based
Description: (§1) The IC90 of psoriasin for several microorganisms was determined by Microbial Growth Inhibition Tests. The tests were performed using the Broth Microdilution Optical Method based on standardized protocols M27 (yeasts) and M38 (filamentous fungi) of the Clinical and Laboratory Standards Institute. […] MOPS, LB (Luria-Bertani), and TSB ([…]) medium types were used, depending on the species being tested. The absorbance was calibrated to each species, and was measured between 450 nm to 650 nm.
In addition, ethyl lauroyl arginate (LAE), a commercially available food preservative, was tested in similar growth conditions as a reference.

Candida albicans = test: as above; format: cell-based; conditions: RPMI-MOPS
Description: as §1

Enterobacter cloacae = test: as above; format: cell-based; conditions: TSB
Description: as §1

Escherichia coli = test: as above; format: cell-based; conditions: LB, TSB
Description: as §1

Lactobacillus saeki = test: as above; format: cell-based; conditions: TSB
Description: as §1

Lactococcus lactis = test: as above; format: cell-based; conditions: TSB
Description: as §1

Listeria monocytogenes = test: as above; format: cell-based; conditions: LB, TSB
Description: as §1

C. albicans = test: Anti-fungal activity after lyophilization or oven drying; format: cell-based, Candida albicans
Description: The activity of psoriasin was assessed following lyophilization and oven drying. […] In particular, psoriasin was lyophilized and then tested for antimicrobial activity against C. albicans at concentrations of 0.5, 0.25, and 0.125 μM compared with psoriasin that had not been lyophilized.
In another experiment, psoriasin was oven-dried at 50° C. for 24 hours. Subsequently, psoriasin was tested for antimicrobial activity against C. albicans at concentrations of 0.5, 0.25, 0.125, 0.0625 μM compared with psoriasin that was not dried.

B1: psoriasin: Recombinant human psoriasin (S100a7) containing a histidine tag, amino acid sequence SEQ ID NO: 11, expression vector pET-28a (protein, listed as Homo sapiens)
chain: MSNTQAERSIIGMIDMFHKYTRRDDKIEKPSLLTMMKENFPNFLSACDKKGTNYLADVFEKKDKNEDKKIDFSEFLSLLGDIATDYHKQSHGAAPCSGGSQ
effective concentration against isolated microbes ([1]; RPMI 1640, 37° C): below 1 μM | effective concentration against isolated microbes ([1]; rich LB medium, 37° C): 50 µM | microbial growth in rolls [2]: no microbial growth was detected | increase of shelf life of plant-based meat substitute [3]: 3 Fold | Yeast & Mold Count ([3]; Day 1): 2 × 10^2 | Total CFU count ([3]; Day 1, open package, psoriasin 0.65%): 1.2 × 10^4 CFU | Total CFU count ([3]; Day 3): 1.2 × 10^4 CFU | Yeast & Mold Count ([3]; Day 3): 2 × 10^2 | Total CFU count ([3]; Day 5): 1.2 × 10^4 CFU | Yeast & Mold Count ([3]; Day 5): 2 × 10^2 | Total CFU count ([3]; Day 10): 6.65 × 10^5 CFU | Yeast & Mold Count ([3]; Day 10): 2 × 10^2 | Total CFU count ([3]; Day 11): 6.5 × 10^5 CFU | Yeast & Mold Count ([3]; Day 11): 2 × 10^2 | Total CFU count ([3]; Day 16): 2.4 × 10^6 CFU | Yeast & Mold Count ([3]; Day 16): 1 × 10^3 | less microbial load than the other two groups (untreated, nisin) ([3]; psoriasin 0.65%): 4 logs | time without microbial growth in hummus spread [4]: over 32 days | antimicrobial activity against E. coli after thermal exposure (E. coli; 70° C for 15, 30 and 60 minutes, all concentrations): retained full antimicrobial activity | ability to inhibit E. coli after thermal exposure (E. coli; 70° C, 80° C, 90° C for 15 minutes, 0.4%, 0.2% or 0.1% psoriasin): maintained its ability to inhibit the growth of E. coli | antimicrobial activity against E. coli after thermal exposure (E. coli; 80° C and 90° C for 1 hour): inhibited the growth of E. coli, though to a lesser extent | IC90 (Aspergillus flavus; Aspergillus flavus, RPMI-MOPS): 0.6 µM | inhibition of A. flavus growth (Aspergillus flavus; concentrations of 0.325 μM and above): nearly all growth | inhibition of detectable A. flavus growth (Aspergillus flavus; concentrations of 0.6 μM and above): 100% | IC90 (Candida albicans): 0.5 µM | IC90 (Enterobacter cloacae): 28 µM | IC90 (Escherichia coli): 100 µM | IC90 (Lactobacillus saeki): 50 µM | IC90 (Lactococcus lactis): 45 µM | IC90 (Listeria monocytogenes): 75 µM | activity against C. albicans after lyophilization vs not lyophilized (C. albicans; 0.5, 0.25 and 0.125 μM): showed the same activity | activity against C. albicans after oven drying vs not dried (C. albicans; oven-dried at 50° C for 24 hours, 0.5, 0.25, 0.125, 0.0625 μM): showed the same activity

Reference: patent US20260231968A1, “AN ECO-FRIENDLY, SUSTAINABLE FOOD PRESERVATIVE” (priority 2023, published 2026)
